Consider 36 variants from the RNAGym collection of RNA variant scans (doi:10.1021/acssynbio.7b00057).

B1: Pistol ribozyme (parent)
chain: GGGUCGUUGUUCCAUAAUCGCGUGGAUAUGGCACGCAAGUUUCUACCGGGCACCGUAAAUGUCCGACUGGAGCCGUUCGGGCGGCUAUAAACAGACCUCAGGCCCGAAGCGUGGCGGCACCUGCCGCCGGUGGUAAAAAAGAUCGGAAGAGCACACGUCU

This data set covers variants of B1. Nature of the data set: aptazyme ON/OFF ratio, guanine; higher = stronger switching; co-transcriptional cleavage with and without guanine.
In the case of GGGUCGCCAUGCCAUAAUCGCGUGGAUAUGGCACGCAAGUUUCUACCGGGCACCGUAAAUGUCCGACUGGAGCCGUUCGGGCGGCUAUAAACAGACCUCAGGCCCGAAGCGUGGCGGCACCUGCCGCCGGUGGUAAAAAAGAUCGGAAGAGCACACGUCU, the “aptazyme ON/OFF ratio” value is 1.62. With GGGUCGCCCUUAAAUAAUCGCGUGGAUAUGGCACGCAAGUUUCUACCGGGCACCGUAAAUGUCCGACUGGAGCCGUUCGGGCGGCUAUAAACAGACCUCAGGCCCGAAGCGUGGCGGCACCUGCCGCCGGUGGUAAAAAAGAUCGGAAGAGCACACGUCU the figure was 1.08; with GGGUCGCCCUUAUAUAAUCGCGUGGAUAUGGCACGCAAGUUUCUACCGGGCACCGUAAAUGUCCGACUGGAGCCGUUCGGGCGGCUAUAAACAGACCUCAGGCCCGAAGCGUGGCGGCACCUGCCGCCGGUGGUAAAAAAGAUCGGAAGAGCACACGUCU, 1.13; with GGGUCGCCCUUAGAUAAUCGCGUGGAUAUGGCACGCAAGUUUCUACCGGGCACCGUAAAUGUCCGACUGGAGCCGUUCGGGCGGCUAUAAACAGACCUCAGGCCCGAAGCGUGGCGGCACCUGCCGCCGGUGGUAAAAAAGAUCGGAAGAGCACACGUCU, 1.06. With GGGUCGCCCUUCGAUAAUCGCGUGGAUAUGGCACGCAAGUUUCUACCGGGCACCGUAAAUGUCCGACUGGAGCCGUUCGGGCGGCUAUAAACAGACCUCAGGCCCGAAGCGUGGCGGCACCUGCCGCCGGUGGUAAAAAAGAUCGGAAGAGCACACGUCU the figure was 1.09. Then GGGUCGCCCUUCAAUAAUCGCGUGGAUAUGGCACGCAAGUUUCUACCGGGCACCGUAAAUGUCCGACUGGAGCCGUUCGGGCGGCUAUAAACAGACCUCAGGCCCGAAGCGUGGCGGCACCUGCCGCCGGUGGUAAAAAAGAUCGGAAGAGCACACGUCU, with 1.09; and GGGUCGCCCUUCUAUAAUCGCGUGGAUAUGGCACGCAAGUUUCUACCGGGCACCGUAAAUGUCCGACUGGAGCCGUUCGGGCGGCUAUAAACAGACCUCAGGCCCGAAGCGUGGCGGCACCUGCCGCCGGUGGUAAAAAAGAUCGGAAGAGCACACGUCU, with 1.05; and GGGUCGCCAUCCUAUAAUCGCGUGGAUAUGGCACGCAAGUUUCUACCGGGCACCGUAAAUGUCCGACUGGAGCCGUUCGGGCGGCUAUAAACAGACCUCAGGCCCGAAGCGUGGCGGCACCUGCCGCCGGUGGUAAAAAAGAUCGGAAGAGCACACGUCU, with 1.29. With GGGUCGCCCUUGCAUAAUCGCGUGGAUAUGGCACGCAAGUUUCUACCGGGCACCGUAAAUGUCCGACUGGAGCCGUUCGGGCGGCUAUAAACAGACCUCAGGCCCGAAGCGUGGCGGCACCUGCCGCCGGUGGUAAAAAAGAUCGGAAGAGCACACGUCU, the “aptazyme ON/OFF ratio” value was 1.18. Then GGGUCGCCCUUUCAUAAUCGCGUGGAUAUGGCACGCAAGUUUCUACCGGGCACCGUAAAUGUCCGACUGGAGCCGUUCGGGCGGCUAUAAACAGACCUCAGGCCCGAAGCGUGGCGGCACCUGCCGCCGGUGGUAAAAAAGAUCGGAAGAGCACACGUCU, with 1.17; and GGGUCGCCCUUACAUAAUCGCGUGGAUAUGGCACGCAAGUUUCUACCGGGCACCGUAAAUGUCCGACUGGAGCCGUUCGGGCGGCUAUAAACAGACCUCAGGCCCGAAGCGUGGCGGCACCUGCCGCCGGUGGUAAAAAAGAUCGGAAGAGCACACGUCU, with 1.26; and GGGUCGCCAUGUGAUAAUCGCGUGGAUAUGGCACGCAAGUUUCUACCGGGCACCGUAAAUGUCCGACUGGAGCCGUUCGGGCGGCUAUAAACAGACCUCAGGCCCGAAGCGUGGCGGCACCUGCCGCCGGUGGUAAAAAAGAUCGGAAGAGCACACGUCU, with 1.15. With GGGUCGCCAUGUUAUAAUCGCGUGGAUAUGGCACGCAAGUUUCUACCGGGCACCGUAAAUGUCCGACUGGAGCCGUUCGGGCGGCUAUAAACAGACCUCAGGCCCGAAGCGUGGCGGCACCUGCCGCCGGUGGUAAAAAAGAUCGGAAGAGCACACGUCU the figure was 1.35; with GGGUCGCCAUGUAAUAAUCGCGUGGAUAUGGCACGCAAGUUUCUACCGGGCACCGUAAAUGUCCGACUGGAGCCGUUCGGGCGGCUAUAAACAGACCUCAGGCCCGAAGCGUGGCGGCACCUGCCGCCGGUGGUAAAAAAGAUCGGAAGAGCACACGUCU, 1.22; with GGGUCGCCCUUCCAUAAUCGCGUGGAUAUGGCACGCAAGUUUCUACCGGGCACCGUAAAUGUCCGACUGGAGCCGUUCGGGCGGCUAUAAACAGACCUCAGGCCCGAAGCGUGGCGGCACCUGCCGCCGGUGGUAAAAAAGAUCGGAAGAGCACACGUCU, 1.13. Then GGGUCGCCCAUAAAUAAUCGCGUGGAUAUGGCACGCAAGUUUCUACCGGGCACCGUAAAUGUCCGACUGGAGCCGUUCGGGCGGCUAUAAACAGACCUCAGGCCCGAAGCGUGGCGGCACCUGCCGCCGGUGGUAAAAAAGAUCGGAAGAGCACACGUCU, with 1.09.

GGGUCGCCAUGGGAUAAUCGCGUGGAUAUGGCACGCAAGUUUCUACCGGGCACCGUAAAUGUCCGACUGGAGCCGUUCGGGCGGCUAUAAACAGACCUCAGGCCCGAAGCGUGGCGGCACCUGCCGCCGGUGGUAAAAAAGAUCGGAAGAGCACACGUCU: the “aptazyme ON/OFF ratio” value came to 1.11. With GGGUCGCCAUGGUAUAAUCGCGUGGAUAUGGCACGCAAGUUUCUACCGGGCACCGUAAAUGUCCGACUGGAGCCGUUCGGGCGGCUAUAAACAGACCUCAGGCCCGAAGCGUGGCGGCACCUGCCGCCGGUGGUAAAAAAGAUCGGAAGAGCACACGUCU the figure was 1.11; with GGGUCGCCAUGGAAUAAUCGCGUGGAUAUGGCACGCAAGUUUCUACCGGGCACCGUAAAUGUCCGACUGGAGCCGUUCGGGCGGCUAUAAACAGACCUCAGGCCCGAAGCGUGGCGGCACCUGCCGCCGGUGGUAAAAAAGAUCGGAAGAGCACACGUCU, 1.23; with GGGUCGCCCUUGAAUAAUCGCGUGGAUAUGGCACGCAAGUUUCUACCGGGCACCGUAAAUGUCCGACUGGAGCCGUUCGGGCGGCUAUAAACAGACCUCAGGCCCGAAGCGUGGCGGCACCUGCCGCCGGUGGUAAAAAAGAUCGGAAGAGCACACGUCU, 1.08. Turning to GGGUCGCCCUUGGAUAAUCGCGUGGAUAUGGCACGCAAGUUUCUACCGGGCACCGUAAAUGUCCGACUGGAGCCGUUCGGGCGGCUAUAAACAGACCUCAGGCCCGAAGCGUGGCGGCACCUGCCGCCGGUGGUAAAAAAGAUCGGAAGAGCACACGUCU, the “aptazyme ON/OFF ratio” value came to 1.07. Turning to GGGUCGCCCUUGUAUAAUCGCGUGGAUAUGGCACGCAAGUUUCUACCGGGCACCGUAAAUGUCCGACUGGAGCCGUUCGGGCGGCUAUAAACAGACCUCAGGCCCGAAGCGUGGCGGCACCUGCCGCCGGUGGUAAAAAAGAUCGGAAGAGCACACGUCU, the “aptazyme ON/OFF ratio” value worked out at 1.07. With GGGUCGCCAUGCGAUAAUCGCGUGGAUAUGGCACGCAAGUUUCUACCGGGCACCGUAAAUGUCCGACUGGAGCCGUUCGGGCGGCUAUAAACAGACCUCAGGCCCGAAGCGUGGCGGCACCUGCCGCCGGUGGUAAAAAAGAUCGGAAGAGCACACGUCU the figure was 1.28; with GGGUCGCCAUGCAAUAAUCGCGUGGAUAUGGCACGCAAGUUUCUACCGGGCACCGUAAAUGUCCGACUGGAGCCGUUCGGGCGGCUAUAAACAGACCUCAGGCCCGAAGCGUGGCGGCACCUGCCGCCGGUGGUAAAAAAGAUCGGAAGAGCACACGUCU, 1.3. As to GGGUCGCCAUGCUAUAAUCGCGUGGAUAUGGCACGCAAGUUUCUACCGGGCACCGUAAAUGUCCGACUGGAGCCGUUCGGGCGGCUAUAAACAGACCUCAGGCCCGAAGCGUGGCGGCACCUGCCGCCGGUGGUAAAAAAGAUCGGAAGAGCACACGUCU, the “aptazyme ON/OFF ratio” value stood at 1.27. For GGGUCGCCCAUACAUAAUCGCGUGGAUAUGGCACGCAAGUUUCUACCGGGCACCGUAAAUGUCCGACUGGAGCCGUUCGGGCGGCUAUAAACAGACCUCAGGCCCGAAGCGUGGCGGCACCUGCCGCCGGUGGUAAAAAAGAUCGGAAGAGCACACGUCU, the “aptazyme ON/OFF ratio” value was determined as 1.11. With GGGUCGCCCUUUUAUAAUCGCGUGGAUAUGGCACGCAAGUUUCUACCGGGCACCGUAAAUGUCCGACUGGAGCCGUUCGGGCGGCUAUAAACAGACCUCAGGCCCGAAGCGUGGCGGCACCUGCCGCCGGUGGUAAAAAAGAUCGGAAGAGCACACGUCU the figure was 1.14; with GGGUCGCCCUUUGAUAAUCGCGUGGAUAUGGCACGCAAGUUUCUACCGGGCACCGUAAAUGUCCGACUGGAGCCGUUCGGGCGGCUAUAAACAGACCUCAGGCCCGAAGCGUGGCGGCACCUGCCGCCGGUGGUAAAAAAGAUCGGAAGAGCACACGUCU, 1.11; with GGGUCGCCCUUUAAUAAUCGCGUGGAUAUGGCACGCAAGUUUCUACCGGGCACCGUAAAUGUCCGACUGGAGCCGUUCGGGCGGCUAUAAACAGACCUCAGGCCCGAAGCGUGGCGGCACCUGCCGCCGGUGGUAAAAAAGAUCGGAAGAGCACACGUCU, 1.16. With GGGUCGCCAUGUCAUAAUCGCGUGGAUAUGGCACGCAAGUUUCUACCGGGCACCGUAAAUGUCCGACUGGAGCCGUUCGGGCGGCUAUAAACAGACCUCAGGCCCGAAGCGUGGCGGCACCUGCCGCCGGUGGUAAAAAAGAUCGGAAGAGCACACGUCU the figure was 1.34. Then GGGUCGCCAUGACAUAAUCGCGUGGAUAUGGCACGCAAGUUUCUACCGGGCACCGUAAAUGUCCGACUGGAGCCGUUCGGGCGGCUAUAAACAGACCUCAGGCCCGAAGCGUGGCGGCACCUGCCGCCGGUGGUAAAAAAGAUCGGAAGAGCACACGUCU, with 1.37; and GGGUCGCCAUGGCAUAAUCGCGUGGAUAUGGCACGCAAGUUUCUACCGGGCACCGUAAAUGUCCGACUGGAGCCGUUCGGGCGGCUAUAAACAGACCUCAGGCCCGAAGCGUGGCGGCACCUGCCGCCGGUGGUAAAAAAGAUCGGAAGAGCACACGUCU, with 1.35; and GGGUCGCCCAUCCAUAAUCGCGUGGAUAUGGCACGCAAGUUUCUACCGGGCACCGUAAAUGUCCGACUGGAGCCGUUCGGGCGGCUAUAAACAGACCUCAGGCCCGAAGCGUGGCGGCACCUGCCGCCGGUGGUAAAAAAGAUCGGAAGAGCACACGUCU, with 2.7. For the variant GGGUCGCCAUGAAAUAAUCGCGUGGAUAUGGCACGCAAGUUUCUACCGGGCACCGUAAAUGUCCGACUGGAGCCGUUCGGGCGGCUAUAAACAGACCUCAGGCCCGAAGCGUGGCGGCACCUGCCGCCGGUGGUAAAAAAGAUCGGAAGAGCACACGUCU, the “aptazyme ON/OFF ratio” value was 1.3. Then GGGUCGCCAUGAGAUAAUCGCGUGGAUAUGGCACGCAAGUUUCUACCGGGCACCGUAAAUGUCCGACUGGAGCCGUUCGGGCGGCUAUAAACAGACCUCAGGCCCGAAGCGUGGCGGCACCUGCCGCCGGUGGUAAAAAAGAUCGGAAGAGCACACGUCU, with 1.25; and GGGUCGCCAUGAUAUAAUCGCGUGGAUAUGGCACGCAAGUUUCUACCGGGCACCGUAAAUGUCCGACUGGAGCCGUUCGGGCGGCUAUAAACAGACCUCAGGCCCGAAGCGUGGCGGCACCUGCCGCCGGUGGUAAAAAAGAUCGGAAGAGCACACGUCU, with 1.59.
